Results on 49 sequences are retold here after the Immune Epitope Database (IEDB).

Conditions in all cases: source organism: Homo sapiens
The target of assay [1] is HLA-A*03:01. The assay can be described thus: IEDB peptide-MHC binding, purified MHC/competitive/radioactivity; ≥ and ≤ were set here for values at or beyond the usual limits of such assays.
For assay [2], the target named is HLA-A*02:01. In words: IEDB peptide-MHC binding, purified MHC/competitive/radioactivity; filed as Kd, often an IC50 or EC50 that approximates it; ≥ and ≤ were set here for values at or beyond the usual limits of such assays.
Assay [3] has as its target HLA-A*03:01. Described as above.
A further assay addresses HLA-A*11:01. The description is as above.
A further assay deals with HLA-A*01:01. The description is as above.
For another assay, the target named is HLA-A*24:02. Described as above.
For assay [4], the target named is HLA-A*02:01. The assay can be described thus: IEDB peptide-MHC binding, purified MHC/competitive/radioactivity; ≥ and ≤ were set here for values at or beyond the usual limits of such assays.

Regarding LLGDNQIMP, the IC50 with HLA-A*03:01 [1] came to 0.55 µM. Consider VMIAMEGGHA, for which, in the assay with HLA-A*02:01 [2], the Kd was 0.139 µM.

FLWGPRALA: the Kd with HLA-A*02:01 [2] is 0.119 µM. With LFRAVITKK, the Kd with HLA-A*03:01 [3] is 1 µM.

As for TSCILESLFR, the Kd in the assay with HLA-A*11:01 amounted to 0.393 µM. Consider MLESVIKNYK, for which the Kd with HLA-A*03:01 [3] was determined as 0.0786 µM; with HLA-A*11:01, 0.218 µM. As for KTGFLIIVLV, in the assay with HLA-A*02:01 [2], the Kd came out at 4.17 µM. For LTQDLVQEK, in the assay with HLA-A*11:01, the Kd amounted to 0.0155 µM.

For DLVGFLLLKY, the Kd with HLA-A*03:01 [3] was found to be 1.59 µM.

As for LVLGTLEEV, the Kd in the assay with HLA-A*02:01 [2] was 0.156 µM. RVRFFFPSLR: in the assay with HLA-A*03:01 [3], the Kd is 0.0256 µM. Consider LIIVLVMIA, for which the Kd with HLA-A*03:01 [3] was no less than 5 µM. Take MLESVIKNY: the Kd with HLA-A*01:01 worked out at 2.27 µM.

For the sequence SLFRAVITKK, the values for the equilibrium dissociation constant (Kd) in the assay with HLA-A*03:01 [3] and with HLA-A*11:01 were 0.0092 µM and 0.006 µM, respectively. As to MSLEQRSLH, in the assay with HLA-A*03:01 [3], the Kd amounted to 3.55 µM. On to ADLVGFLLLK, for which the Kd came to 0.0314 µM in the assay with HLA-A*03:01 [3] and 0.0203 µM with HLA-A*11:01. For IMPKTGFLI, the Kd with HLA-A*24:02 was 0.0038 µM. Moreover, the IC50 with HLA-A*02:01 [4] is 0.649 µM. RALAETSYV: the IC50 with HLA-A*02:01 [4] worked out at 0.5 µM. Regarding LVGFLLLKY, the Kd with HLA-A*03:01 [3] turned out to be 0.196 µM. Regarding RALAETSYVK, the values for the Kd with HLA-A*03:01 [3] and in the assay with HLA-A*11:01 were 0.0611 µM and 0.0246 µM, respectively. As to YVLVTCLGL, the Kd with HLA-A*02:01 [2] was found to be 2.17 µM. With LSVMEVYDGR, the Kd with HLA-A*11:01 worked out at 0.492 µM.

As for NYKHCFPEI, the Kd with HLA-A*24:02 was 0.0025 µM.

On to IMPKTGFLII, for which the results for the Kd in the assay with HLA-A*02:01 [2] and in the assay with HLA-A*24:02 were 1.43 µM and 0.0343 µM, respectively. LVGFLLLKYR: the Kd with HLA-A*03:01 [3] worked out at 3.24 µM.

As for LLTQDLVQEK, in the assay with HLA-A*11:01, the Kd was found to be 0.0369 µM.

Turning to ETSYVKVLEY, the Kd with HLA-A*01:01 is 0.0446 µM.

With KVADLVGFLL, the Kd in the assay with HLA-A*02:01 [2] was found to be 0.0893 µM. On to ALGLVCVQA, for which the Kd with HLA-A*02:01 [2] amounted to 0.333 µM. Take LTQDLVQEKY: the Kd in the assay with HLA-A*01:01 stood at 0.0208 µM.

Regarding SLQLVFGIDV, the Kd in the assay with HLA-A*02:01 [2] was found to be 2.5 µM.

Consider YVIKVSARVR, for which the half-maximal inhibitory concentration (IC50) with HLA-A*03:01 [1] turned out to be 0.579 µM.

For the sequence GLLGDNQIM, the IC50 with HLA-A*02:01 [4] is 0.98 µM. Regarding SLEQRSLHCK, the Kd with HLA-A*11:01 worked out at 0.393 µM. Moreover, the IC50 with HLA-A*03:01 [1] turned out to be 0.733 µM.

On to TTINFTRQR, for which, in the assay with HLA-A*11:01, the Kd stood at 0.0059 µM. The IC50 in the assay with HLA-A*03:01 [1] came to 0.688 µM. As for FLIIVLVMIA, the Kd with HLA-A*03:01 [3] was determined as 1.18 µM. As to HSAYGEPRK, the concentration for half-maximal inhibition (IC50) with HLA-A*03:01 [1] was found to be 0.786 µM. As for VGFLLLKYR, the Kd in the assay with HLA-A*03:01 [3] turned out to be 2.5 µM. As for YVIKVSARV, the Kd in the assay with HLA-A*02:01 [2] is 0.357 µM. LVQEKYLEY: in the assay with HLA-A*11:01, the Kd is 0.111 µM. In the case of SVMEVYDGR, the Kd was 1.18 µM with HLA-A*03:01 [3] and 0.0045 µM with HLA-A*11:01.

Take KVADLVGFL: the IC50 in the assay with HLA-A*02:01 [4] turned out to be 0.575 µM.

In the case of YVKVLEYVIK, in the assay with HLA-A*03:01 [3], the Kd came out at 3.79 µM. With GLVCVQAAT, the Kd with HLA-A*02:01 [2] turned out to be 2.17 µM.

In the case of ALAETSYVK, the values for the Kd in the assay with HLA-A*03:01 [3] and in the assay with HLA-A*11:01 were 0.0355 µM and 0.0164 µM, respectively. With VADLVGFLL, in the assay with HLA-A*02:01 [2], the Kd worked out at 2.5 µM. Regarding ALREEEEGV, the Kd in the assay with HLA-A*02:01 [2] turned out to be 0.238 µM. For the sequence SYVKVLEYVI, in the assay with HLA-A*24:02, the Kd was found to be 0.333 µM. With SLHCKPEEA, the Kd in the assay with HLA-A*02:01 [2] worked out at 0.385 µM.

The term IC50 denotes the concentration needed to halve the response being measured. What is called Kd is a measure of binding affinity in units of concentration.
